Source: patent US7867500B2, “Cofactor that modulates steroid receptor activities” (The United States of America as represented by the …, priority 2004, dated 2011)
Values belong to the molecule of their own block, whether it stands above or below them.

Tests used:
STAMP = molecular target: T1, STAMP (Homo sapiens, UniProt Q6EMB2); test: siRNA assay: fold repression by GR of AP-1/Luc reporter in U2OS.rGR cells; type: cell-based; details: 500 ng siRNA, without HA/STAMP plasmid
T1 construct: Indirect immunofluorescence, using HA-tagged full-length STAMP; expressed in transfected cells; host or cells: U2OS.rGR
Description: U2OS.rGR cells were transiently transfected with (FIG. 5E) or without (FIG. 5F) HA/STAMP plasmid (100 ng) and ±500 ng of STAMP siRNA, or β-actin siRNA, plus AP-1/Luc reporter (20 ng) and the Renilla control (10 ng) plasmid. The cells were processed and the fold repression with each treatment was calculated as described in FIG. 5A. The average values were then plotted (±S.E.M., n=4-5 (FIG. 5D) and 7 (FIG. 5E); *, P≦0.032; **, P=0.0022).
Four different siRNA oligonucleotides for STAMP were designed and synthesized by Qiagen:
A control β-actin siRNA was also purchased from Qiagen. U2OS.rGR cells were seeded at 50,000 cells per well in 24 wells plate the day before transfection. DNA (STAMP plasmid and AP-1/Luc reporter; total=150 ng) together with 500 ng siRNA were mixed with 1.6 μl Lipofectamine 2000 (Invitrogen), allowed to stand at room temperature for 15 min, and then added to FBS-free DMEM pre-washed cells. Four hours later, the cells were re-fed with DMEM/10% FBS (containing G418), allowed to recover for 2 h, and re-fed with DMEM/10% FBS (containing G418) containing appropriate hormone dilutions±PMA. The cells were harvested and Luciferase activity was determined as described above in the standard transient transfection studies.

TIF2.4 [1] = molecular target: T2, TIF2.4 (Homo sapiens, UniProt Q15596); test: Mammalian two-hybrid assay in CV-1 cells (pFRLuc reporter) with TIF2.4; type: cell-based; parameters: expressed in transfected cells; host or cells: CV-1
T2 sequence (Q15596 624-1010 limits assumed): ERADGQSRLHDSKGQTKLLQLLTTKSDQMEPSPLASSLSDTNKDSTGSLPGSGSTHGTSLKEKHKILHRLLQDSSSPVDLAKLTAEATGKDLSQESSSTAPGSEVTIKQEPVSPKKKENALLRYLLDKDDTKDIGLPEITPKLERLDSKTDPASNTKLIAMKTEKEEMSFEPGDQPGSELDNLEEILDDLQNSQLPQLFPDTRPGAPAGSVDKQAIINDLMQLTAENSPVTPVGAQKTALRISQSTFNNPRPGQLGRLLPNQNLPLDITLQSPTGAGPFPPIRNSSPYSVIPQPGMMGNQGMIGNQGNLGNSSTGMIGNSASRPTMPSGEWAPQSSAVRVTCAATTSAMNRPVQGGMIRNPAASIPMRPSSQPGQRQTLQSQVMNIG
Source text: FIG. 2A-2C illustrate the isolation and characterization of the partial clone of the protein that binds to TIF2.4. […] Five clones were obtained but only two (clones I and V) contained a protein that was needed for colony growth in the presence of the pSos/TIF2.4 fusion protein. After initial screening, only clone I (also named 6-6CL1) was selected for further investigation. FIG. 2B and FIG. 2C illustrate the selectivity of 6-6CL1 interactions with TIF2.4 in mammalian two-hybrid assays. Triplicate samples of CV-1 cells in 24-well plates were transiently transfected with the indicated GAL-DBD and VP16-AD plasmids along with the GAL4-regulated reporter, pFRLuc. The relative luciferase activity, normalized for the activity of the internal Renilla control, was determined and plotted as the average±S.D. The much lower activity of GAL/TIF2.4m123 was previously shown not to be due to unequal levels of protein expression (He et al., 2002). Similar results were obtained in three additional experiments. FIG. 2D and FIG. 2E provide a comparison of binding to 6-6CL1 by similarly positioned domains of SRC-1 and TIF2. Triplicate samples of CV-1 cells in 24-well plates were analyzed as in (B&C) after being transiently transfected with GAL±6-6CL1 constructs and pFRLuc reporter along with VP16 chimeras of SRC-1 (FIG. 2D) or TIF2 (FIG. 2E) segments. Similar results for SRC-1 were obtained in two additional experiments (ND=not determined). Western blots (FIG. 2F) indicate that the low activity of TIF2(1140C) (see FIG. 1) is not due to inadequate protein expression.
FIGS. 6A and 6B illustrate the domains of STAMP that interact with TIF2.4 (FIG. 6A) and GR (FIG. 6B) in the mammalian two-hybrid assay. […] These CV-1 cells were also transfected with GAL fused to the indicated segments of STAMP along with the FRLuc reporter and Renilla control plasmids. After determining the relative luciferase activities as described in FIG. 2B and 2C, the average values±S.E.M. from 2-5 experiments were plotted. The average fold increase for VP16/TIF2.4 with GAL/STAMP(623-834) in FIG. 6A was 11.0±3.0 (SEM, n=5) above the VP16 control. The values in parentheses above the data bars in FIG. 6B indicate the fold increased interaction ±1 μM Dex.
These assays were conducted as described (He et al., 2002). In particular, the recommended procedure for the Mammalian Matchmaker two-hybrid assay kit (Clontech) was modified slightly by changing from a chloramphenicol acetyltransferase reporter to a Luciferase Reporter pFRLuc (Stratagene), which is under the control of five repeats of the upstream activating sequence for the binding of GAL4.

TIF2.4 [2] = molecular target: T2, TIF2.4; test: Cell-free pulldown of [35S]-labeled STAMP constructs by GST/TIF2.4; type: binding; details: compared with GST itself
Source text: (§1) FIGS. 7A and 7B illustrate the domains of STAMP that bind to TIF2.4 (FIG. 7A) and GR (FIG. 7B) in cell-free pulldown assays. Bacterially expressed GST-chimeras (GST/TIF2.4 in FIG. 7A and GST/STAMP segments in FIG. 7B) were immobilized on glutathione-Sepharose beads. The [^35S]methionine labeled STAMP fragments (FIG. 7A) or wild type GR (FIG. 7B) that were retained on the matrix by binding to the GST chimeras were separated on SDS PAGE gels and visualized by autoradiography. Specific binding was seen as when the GST/TIF2.4 or GST/STAMP bands were darker than the GST control bands. […] Similar results were obtained in a second experiment.
(§2) Template DNA plasmids (1 μg), 40 μl of Promega TNT (SP6) quick coupled transcription/translation system master mixture, and 2 μl of [^35S]methionine (Amersham Biosciences) were brought up to a total volume of 50 μl with H2O and incubated at 30° C. for 90 min according to the manufacturer's (Promega) recommendations. If hormone stimulation is needed, hormones (Dex, etc) were added into the transcription-translation reaction during the 30° C. incubation to both increase the stability of the synthesized GR and to cause activation of the GR-steroid complexes.
These assays were conducted generally as described (He et al., 2002). Sonicated bacterial lysates (1 ml) containing overexpressed GST, GST/TIF2.4, or GST/STAMP-956C were incubated with 160 μl of glutathione-Sepharose 4B beads for 1 hr at 0° C. The mixture was centrifuged (12,000×g), the supernatant was discarded, and the pellet was washed with phosphate-buffered saline (3×1 ml). Each 20-μl sample of immobilized GST or GST-chimera was then incubated overnight with 10 μl of ^35S-labeled in vitro translation product. The matrix was washed with phosphate-buffered saline (4×1 ml). The immobilized proteins were removed from the beads by heating at 90° C. for 5 min in 20 μl of 2×SDS loading buffer. The proteins were separated on 8-10% SDS-PAGE gels and detected by radio-autoradiography.

[3] = molecular target: T3, glucocorticoid receptor (GR) (Rattus norvegicus, UniProt P06536); test: Cell-free pulldown of [35S]-labeled GR by GST/STAMP segment; type: binding; details: with and without steroid
T3 construct: made in house; host or cells: cell-free coupled transcription/translation (Promega TNT SP6); the GST partner was made in E. coli BL21
T3 sequence (P06536 1-795): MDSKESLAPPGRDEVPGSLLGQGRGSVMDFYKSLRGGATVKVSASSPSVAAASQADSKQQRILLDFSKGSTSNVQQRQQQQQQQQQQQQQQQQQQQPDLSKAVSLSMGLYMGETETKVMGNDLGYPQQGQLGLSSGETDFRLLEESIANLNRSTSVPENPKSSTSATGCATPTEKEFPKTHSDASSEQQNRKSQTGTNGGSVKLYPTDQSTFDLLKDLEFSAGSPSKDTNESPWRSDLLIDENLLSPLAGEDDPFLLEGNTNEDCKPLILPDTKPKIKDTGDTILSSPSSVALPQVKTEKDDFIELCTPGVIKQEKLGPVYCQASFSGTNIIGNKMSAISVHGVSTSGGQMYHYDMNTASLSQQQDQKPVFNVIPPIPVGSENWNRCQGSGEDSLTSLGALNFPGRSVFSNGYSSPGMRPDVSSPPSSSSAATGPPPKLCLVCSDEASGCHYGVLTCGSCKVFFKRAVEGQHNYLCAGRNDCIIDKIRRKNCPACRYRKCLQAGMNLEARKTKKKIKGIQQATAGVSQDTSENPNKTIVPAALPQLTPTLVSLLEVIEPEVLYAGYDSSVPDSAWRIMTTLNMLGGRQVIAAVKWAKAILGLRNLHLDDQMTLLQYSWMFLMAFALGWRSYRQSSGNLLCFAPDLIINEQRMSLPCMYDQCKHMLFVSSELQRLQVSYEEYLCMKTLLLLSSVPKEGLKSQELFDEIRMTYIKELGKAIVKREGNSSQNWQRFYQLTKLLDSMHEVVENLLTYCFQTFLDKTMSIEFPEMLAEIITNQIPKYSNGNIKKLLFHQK
T3 sequence (Q6EMB2 960-1281 F1267S partner limits assumed): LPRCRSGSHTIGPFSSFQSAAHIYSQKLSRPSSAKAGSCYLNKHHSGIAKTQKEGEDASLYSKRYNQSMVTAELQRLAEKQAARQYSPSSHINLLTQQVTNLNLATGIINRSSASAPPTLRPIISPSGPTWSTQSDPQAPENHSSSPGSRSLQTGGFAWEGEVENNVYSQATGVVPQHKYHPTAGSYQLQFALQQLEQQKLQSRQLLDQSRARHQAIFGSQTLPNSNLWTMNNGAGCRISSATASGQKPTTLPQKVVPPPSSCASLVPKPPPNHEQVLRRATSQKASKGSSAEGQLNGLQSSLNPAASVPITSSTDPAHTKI
Source text: as §1, §2
These assays were conducted generally as described (He et al., 2002). […] The proteins were separated on 8-10% SDS-PAGE gels and detected by radio-autoradiography.

T1 sequence (Q6EMB2 5-1281 A149V/F1267S limits assumed): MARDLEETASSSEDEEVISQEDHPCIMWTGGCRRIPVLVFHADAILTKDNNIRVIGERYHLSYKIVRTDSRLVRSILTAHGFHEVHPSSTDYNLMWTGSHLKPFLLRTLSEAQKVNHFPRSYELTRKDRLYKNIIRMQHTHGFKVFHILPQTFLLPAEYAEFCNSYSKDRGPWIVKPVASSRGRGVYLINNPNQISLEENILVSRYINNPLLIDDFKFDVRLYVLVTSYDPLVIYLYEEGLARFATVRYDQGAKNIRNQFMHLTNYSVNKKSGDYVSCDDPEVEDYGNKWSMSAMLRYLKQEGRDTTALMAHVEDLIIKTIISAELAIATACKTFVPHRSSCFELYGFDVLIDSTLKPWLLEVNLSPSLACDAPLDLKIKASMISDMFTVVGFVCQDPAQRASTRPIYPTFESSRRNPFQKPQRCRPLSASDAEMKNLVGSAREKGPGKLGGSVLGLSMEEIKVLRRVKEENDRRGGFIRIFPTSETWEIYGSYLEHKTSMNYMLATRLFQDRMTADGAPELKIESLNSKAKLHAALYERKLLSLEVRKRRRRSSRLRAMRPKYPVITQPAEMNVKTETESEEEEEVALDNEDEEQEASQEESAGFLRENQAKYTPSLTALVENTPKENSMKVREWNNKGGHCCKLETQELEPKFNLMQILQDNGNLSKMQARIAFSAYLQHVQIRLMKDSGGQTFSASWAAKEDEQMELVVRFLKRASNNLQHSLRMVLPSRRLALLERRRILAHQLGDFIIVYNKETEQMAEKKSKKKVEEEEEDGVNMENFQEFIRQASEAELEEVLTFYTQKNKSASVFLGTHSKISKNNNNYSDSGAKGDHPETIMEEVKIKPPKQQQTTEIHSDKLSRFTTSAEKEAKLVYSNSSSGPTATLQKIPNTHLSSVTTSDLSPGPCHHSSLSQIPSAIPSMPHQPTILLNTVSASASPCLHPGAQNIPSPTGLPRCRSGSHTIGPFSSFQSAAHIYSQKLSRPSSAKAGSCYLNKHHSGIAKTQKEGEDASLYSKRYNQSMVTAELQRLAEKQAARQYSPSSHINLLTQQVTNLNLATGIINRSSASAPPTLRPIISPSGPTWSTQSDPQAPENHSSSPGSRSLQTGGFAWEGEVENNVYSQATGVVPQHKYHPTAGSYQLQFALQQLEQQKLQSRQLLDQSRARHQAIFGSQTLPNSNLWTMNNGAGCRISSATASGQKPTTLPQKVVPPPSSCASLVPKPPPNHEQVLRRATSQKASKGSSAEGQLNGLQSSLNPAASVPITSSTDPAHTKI

Molecule: CAGCACTGACTATAACCTAAT (chemistry not given here) [STAMP siRNA #3, siRNA oligonucleotide for STAMP synthesized by Qiagen]
repressive activity of GR-agonist complexes (endogenous STAMP) (STAMP): can reduce the repressive activity of GR-agonist complexes

Molecule: GAGGGCAATGAGGCCAAAATA (chemistry not given here) [STAMP siRNA #4, siRNA oligonucleotide for STAMP synthesized by Qiagen]
repressive activity of GR-agonist complexes (endogenous STAMP) (STAMP): can reduce the repressive activity of GR-agonist complexes

interaction with TIF2.4 (TIF2.4 [1]): weak response
B1: N623: STAMP fragment amino acids 1-623, TTL domain but not the CID region (protein)
chain: MARDLEETASSSEDEEVISQEDHPCIMWTGGCRRIPVLVFHADAILTKDNNIRVIGERYHLSYKIVRTDSRLVRSILTAHGFHEVHPSSTDYNLMWTGSHLKPFLLRTLSEAQKVNHFPRSYELTRKDRLYKNIIRMQHTHGFKVFHILPQTFLLPAEYAEFCNSYSKDRGPWIVKPVASSRGRGVYLINNPNQISLEENILVSRYINNPLLIDDFKFDVRLYVLVTSYDPLVIYLYEEGLARFATVRYDQGAKNIRNQFMHLTNYSVNKKSGDYVSCDDPEVEDYGNKWSMSAMLRYLKQEGRDTTALMAHVEDLIIKTIISAELAIATACKTFVPHRSSCFELYGFDVLIDSTLKPWLLEVNLSPSLACDAPLDLKIKASMISDMFTVVGFVCQDPAQRASTRPIYPTFESSRRNPFQKPQRCRPLSASDAEMKNLVGSAREKGPGKLGGSVLGLSMEEIKVLRRVKEENDRRGGFIRIFPTSETWEIYGSYLEHKTSMNYMLATRLFQDRMTADGAPELKIESLNSKAKLHAALYERKLLSLEVRKRRRRSSRLRAMRPKYPVITQPAEMNVKTETESEEEEEVALDNEDEEQEASQEESAGFLRENQAKYTPSLTALVE
modifications: GAL4 DBD fusion
notes: STAMP fragment amino acids 1-623, TTL domain but not the CID region
binding to GST/TIF2.4 (TIF2.4 [2]): neither the amino terminal (N623) nor the C-terminal (834C) fragments exhibit significantly more binding to GST/TIF2.4 than to GST itself

binding of full length GR [3]: this binding is steroid-independent
B2: GST/STAMP(956C): GST chimera of STAMP fragment amino acids 956 to 1277 (protein)
chain: T3 sequence (Q6EMB2 960-1281 F1267S partner limits assumed)
modifications: GST fusion
